Measurements as given in US20210338656A1, “IMMUNOSTIMULATORY AGENTS IN COMBINATION WITH ANGIOGENESIS INHIBITORS” (Alkermes Pharma Ireland Limited, priority 2020, published 2021).

Legend:
[1] = system: gene expression in MC38 tumors; experiment: RNA-Seq gene expression in MC38 tumors, Day 10; format: in vivo, mouse
Experimental: On Day 10 spleens and tumors were collected and weighed from all animals in Groups 7 through 12 and weighed prior to processing. Tissues from four animals in each group were processed to single cell suspensions for flow cytometry analysis at CRL-NC (described below). Tissues from the remaining six animals in each group were preserved in RNAlater, stored at −80° C.
Tumors and spleens were dissected on the appropriate day of the study and were weighed and immediately placed in RNAlater Stabilizing Reagent to preserve the tissue and stored overnight at 4 deg C. The following day, the samples were removed from RNA later and snap frozen and placed at −80 deg C.
Unless otherwise indicated, everything was done on ice and the materials were prechilled on ice. The tissues were homogenized in TRIzol in Precellys tissue grinding tubes. After homogenization, the TRIzol solutions were transferred to 1.5 ml tubes and spun for 5 min at 12,000×g to eliminate the insoluble material. The TRIzol solutions were then transferred to Phasemaker tubes. Chloroform was added, the tubes were capped, and shaken vigorously for 15 seconds. The samples were then incubated at room temperature for 2-15 minutes and centrifuged at 12,000×g for 5 minutes. The upper, aqueous phase was then transferred to a new tube and an equal volume of 70% ethanol was added and it was vortexed. The liquid was then transferred to Qiagen RNeasy columns and centrifuged at 8000×g. DNAse was added to each tube to eliminate any residual DNA. The columns were then washed and eluted as directed by the kit. The RNA concentrations were determined using a Qubit.
Libraries were prepared for sequencing by using the Mouse Transcriptome Ion AmpliSeq Library Preparation on the Ion Chef System as directed by the manufacturer. Eight samples of purified RNA and 8 unique IonCode molecular barcodes were added to a 96 well plate and were prepared at a time. After the libraries were prepared, they were templated and loaded onto an Ion Torrent 540 chip using the Ion 540 Chef Kit from ThermoFisher. The 540 chips were then loaded into a Gene Studio S5 sequencer and sequenced.
Raw sequencing data was processed by Torrent Suite (v5.8.0) software that came with the Gene Studio sequencer (ThermoFisher). For each sample, this program summarized gene expression in a CHP file. The CHP files were then loaded into the Transcriptome Analysis Console (TAC) program (ThermoFisher).

[2] = Tolerability in vivo in mice relative to rhIL-2; parameters: species or system mouse; conditions: doses that elicit equivalent or greater expansion of effector cells relative to Tregs
[3] = T cell signaling gene, MC38 tumors Day 10 RNA-Seq, lucitanib 10 mg/kg po, SEQ ID NO. 2 3 mg/kg sc
[4] = Type I/II interferon pathway gene, MC38 tumors Day 10 RNA-Seq, lucitanib 10 mg/kg po, SEQ ID NO. 2 3 mg/kg sc
[5] = antigen presentation gene, MC38 tumors Day 10 RNA-Seq, lucitanib 10 mg/kg po, SEQ ID NO. 2 3 mg/kg sc

B1: SEQ ID NO: 2: mouse ortholog construct (murine surrogate) of the circularly permuted IL-2/IL-2Rα fusion protein of SEQ ID NO: 1 (protein)
chain: SKSFQLEDAENFISNIRVTVVKLKGSDNTFECQFDDESATVVDFLRRWIAFCQSIISTSPQGGSSSTQQQQQHLEQLLMDLQELLSRMENYRNLKLPRMLTFKFYLPKQATELKDLQCLEDELGPLRHVLDLTQGSGGGSELCLYDPPEVPNATFKALSYKNGTILNCECKRGFRRLKELVYMRCLGNSWSSNCQCTSNSHDKSRKQVTAQLEHQKEQQTTTDMQKPTQSMHQENLTGHCREPPPWKHEDSKRIYHFVEGQSVHYECIPGYKALQRGPAISICKMKCGKTGWTQPQLTCVDGSHHHHHH
modifications: Mouse cpIL-2IL-2R-alpha
Cd3e mean expression value relative to vehicle group [1, 3]: 3.81 | Cd4 mean expression value relative to vehicle group [1, 3]: 1.46 | Cd8a mean expression value relative to vehicle group [1, 3]: 4.64 | Cd8b1 mean expression value relative to vehicle group [1, 3]: 8.03 | Cd28 mean expression value relative to vehicle group [1, 3]: 2.86 | Cd247 mean expression value relative to vehicle group [1, 3]: 3.95 | Cd3d mean expression value relative to vehicle group [1, 3]: 5.96 | Ctla4 mean expression value relative to vehicle group [1, 3]: 0.60 | H2-Aa mean expression value relative to vehicle group [1, 3]: 1.27 | H2-Ab1 mean expression value relative to vehicle group [1, 3]: 2.25 | H2-Eb1 mean expression value relative to vehicle group [1, 3]: 1.29 | Icos mean expression value relative to vehicle group [1, 3]: 1.69 | Ifng mean expression value relative to vehicle group [1, 3]: 2.06 | Il2 mean expression value relative to vehicle group [1, 3]: 0.31 | Lck mean expression value relative to vehicle group [1, 3]: 4.42 | Lcp2 mean expression value relative to vehicle group [1, 3]: 0.23 | Nfatc2 mean expression value relative to vehicle group [1, 3]: 0.67 | Pdcd1 mean expression value relative to vehicle group [1, 3]: 2.42 | Ptpn22 mean expression value relative to vehicle group [1, 3]: 2.19 | Ptprc mean expression value relative to vehicle group [1, 3]: 2.32 | Zap70 mean expression value relative to vehicle group [1, 3]: 2.63 | B2m mean expression value relative to vehicle group [1, 4]: 0.03 | Bst2 mean expression value relative to vehicle group [1, 4]: 0.08 | Cd44 mean expression value relative to vehicle group [1, 4]: −0.19 | Ciita mean expression value relative to vehicle group [1, 4]: 1.36 | Fcgr1 mean expression value relative to vehicle group [1, 4]: 1.12 | Gm10499 mean expression value relative to vehicle group [1, 4]: −0.02 | H2-Aa mean expression value relative to vehicle group [1, 4]: 1.27 | H2-Ab1 mean expression value relative to vehicle group [1, 4]: 2.25 | H2-Eb1 mean expression value relative to vehicle group [1, 4]: 1.29 | H2-K1 mean expression value relative to vehicle group [1, 4]: 0.04 | H2-Q10 mean expression value relative to vehicle group [1, 4]: −0.28 | Icam1 mean expression value relative to vehicle group [1, 4]: 0.88 | Ifi35 mean expression value relative to vehicle group [1, 4]: 0.38 | Ifit2 mean expression value relative to vehicle group [1, 4]: 0.54 | Ifitm1 mean expression value relative to vehicle group [1, 4]: −0.13 | Ifna2 mean expression value relative to vehicle group [1, 4]: 0 | Ifnar1 mean expression value relative to vehicle group [1, 4]: 0.35 | Ifnar2 mean expression value relative to vehicle group [1, 4]: 0.2 | Ifnb1 mean expression value relative to vehicle group [1, 4]: −0.16 | Ifng mean expression value relative to vehicle group [1, 4]: 2.06 | Ifngr1 mean expression value relative to vehicle group [1, 4]: 0.23 | Irf1 mean expression value relative to vehicle group [1, 4]: −0.01 | Irf4 mean expression value relative to vehicle group [1, 4]: 0.92 | Irf5 mean expression value relative to vehicle group [1, 4]: 0.43 | Irf8 mean expression value relative to vehicle group [1, 4]: 1.46 | Mx1 mean expression value relative to vehicle group [1, 4]: 0.6 | Ncam1 mean expression value relative to vehicle group [1, 4]: −0.2 | Pml mean expression value relative to vehicle group [1, 4]: 0.62 | Ptpn6 mean expression value relative to vehicle group [1, 4]: 0.36 | Socs3 mean expression value relative to vehicle group [1, 4]: 0.09 | Tyk2 mean expression value relative to vehicle group [1, 4]: 0.36 | Vcam1 mean expression value relative to vehicle group [1, 4]: 0.13 | B2m mean expression value relative to vehicle group [1, 5]: 0.03 | Btk mean expression value relative to vehicle group [1, 5]: 0.06 | Cd14 mean expression value relative to vehicle group [1, 5]: 0.51 | Cd36 mean expression value relative to vehicle group [1, 5]: −0.08 | Cd74 mean expression value relative to vehicle group [1, 5]: 1.14 | Ctsc mean expression value relative to vehicle group [1, 5]: 0.82 | Ctss mean expression value relative to vehicle group [1, 5]: 1.2 | Cybb mean expression value relative to vehicle group [1, 5]: 0.8 | Fcgr1 mean expression value relative to vehicle group [1, 5]: 1.12 | H2-Aa mean expression value relative to vehicle group [1, 5]: 1.27 | H2-Ab1 mean expression value relative to vehicle group [1, 5]: 2.25 | H2-DMa mean expression value relative to vehicle group [1, 5]: 1.16 | H2-DMb2 mean expression value relative to vehicle group [1, 5]: 0.65 | H2-Ea-ps mean expression value relative to vehicle group [1, 5]: 0 | H2-Eb1 mean expression value relative to vehicle group [1, 5]: 1.29 | H2-K1 mean expression value relative to vehicle group [1, 5]: 0.04 | H2-Ob mean expression value relative to vehicle group [1, 5]: 1.61 | H2-Q10 mean expression value relative to vehicle group [1, 5]: −0.28 | Ly96 mean expression value relative to vehicle group [1, 5]: 0.27 | Ncf4 mean expression value relative to vehicle group [1, 5]: 0.86 | Psmb9 mean expression value relative to vehicle group [1, 5]: 0.03 | Tap1 mean expression value relative to vehicle group [1, 5]: 0.12 | Tlr1 mean expression value relative to vehicle group [1, 5]: 0.62 | Tlr2 mean expression value relative to vehicle group [1, 5]: 0.36 | Tlr4 mean expression value relative to vehicle group [1, 5]: 0.21 | expression of genes associated with cytotoxic immune cell function and T cell activation ([1]; tumors): Increased expression | tolerability relative to recombinant human IL-2 (rhIL-2) [2]: improved tolerability
